Literature values, collected in paper PMC3931982.

Molecular target: RXR LBD (Homo sapiens) (UniProt P19793)

Question: For RXR LBD (from UniProt P19793), which Kd is on record?
Answer: 4 nM
